The values that follow come from publication PMC3124363.

One test deals with cyclin A (Homo sapiens) (UniProt P20248). The conditions noted are these: cited from earlier work.
The next test concerns the target Cdk2 (Homo sapiens) (UniProt P24941). The conditions noted are these: cited from earlier work.
Test [1] deals with Cdk2/cyclin A complex (full length human Cdk2 with truncated human cyclin A, residues 173–432) (human) (UniProt P24941). The experiment in a line: ITC. On the technique in general: ITC needs no label: the signal is the heat of the interaction.

cyclin A (Homo sapiens), sequence (P20248 whole entry): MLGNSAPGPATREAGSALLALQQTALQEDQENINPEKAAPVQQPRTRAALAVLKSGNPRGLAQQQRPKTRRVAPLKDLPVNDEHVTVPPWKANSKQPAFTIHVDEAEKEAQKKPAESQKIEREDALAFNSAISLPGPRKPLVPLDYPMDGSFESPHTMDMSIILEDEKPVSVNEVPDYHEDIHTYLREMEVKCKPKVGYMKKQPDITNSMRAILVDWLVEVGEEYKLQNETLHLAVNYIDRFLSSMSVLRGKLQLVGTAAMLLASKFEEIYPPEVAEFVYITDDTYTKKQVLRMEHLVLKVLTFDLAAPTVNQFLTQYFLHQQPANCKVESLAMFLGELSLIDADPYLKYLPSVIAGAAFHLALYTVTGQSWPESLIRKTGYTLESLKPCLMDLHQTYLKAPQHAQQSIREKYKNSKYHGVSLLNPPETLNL

What is called Kd is a measure of binding affinity in units of concentration. With p27 D1 (from UniProt P46527), the dissociation constant Kd with cyclin A (Homo sapiens) was 25 nM.

Consider p27 D2 (from UniProt P46527), for which the Kd with Cdk2 (Homo sapiens) was 70 nM.

For the substance “sub-domain D1 of p21 (domain or fragment)”, in test [1], the Kd came to 61 nM.
